According to article doi:10.1101/2020.10.11.334888 (bioRxiv, 2020):
Positions count from the first letter of the chain named. Numbers in names are those of the source. Like-named read-outs stand apart in the source and are kept apart here.

B1: FliF in the native flagellar basal body (native MS ring) (natural protein)
chain: MSATASTATQPKPLEWLNRLRANPRIPLIVAGSAAVAIVVAMVLWAKTPDYRTLFSNLSDQDGGAIVAQLTQMNIPYRFANGSGAIEVPADKVHELRLRLAQQGLPKGGAVGFELLDQEKFGISQFSEQVNYQRALEGELARTIETLGPVKSARVHLAMPKPSLFVREQKSPSASVTVTLEPGRALDEGQISAVVHLVSSAVAGLPPGNVTLVDQSGHLLTQSNTSGRDLNDAQLKFANDVESRIQRRIEAILSPIVGNGNVHAQVTAQLDFANKEQTEEHYSPNGDASKATLRSRQLNISEQVGAGYPGGVPGALSNQPAPPNEAPIATPPTNQQNAQNTPQTSTSTNSNSAGPRSTQRNETSNYEVDRTIRHTKMNVGDIERLSVAVVVNYKTLADGKPLPLTADQMKQIEDLTREAMGFSDKRGDTLNVVNSPFSAVDNTGGELPFWQQQSFIDQLLAAGRWLLVLVVAWILWRKAVRPQLTRRVEEAKAAQEQAQVRQETEEAVEVRLSKDEQLQQRRANQRLGAEVMSQRIREMSDNDPRVVALVIRQWMSNDHE
B2: FliF(L253A), overexpressed in E. coli (natural protein)
chain: B1 chain with L253A
B3: FliF(V266A), overexpressed in E. coli (natural protein)
chain: B1 chain with V266A
B4: FliF(I252A), overexpressed in E. coli (natural protein)
chain: B1 chain with I252A
B5: FliF(I252A) expressed from pMMiF002 in Salmonella TH12415 (ΔfliF) (natural protein)
chain: B1 chain with I252A
B6: FliF(L253R), overexpressed in E. coli (natural protein)
chain: B1 chain with L253R
B7: full-length Salmonella FliF (MS ring), overexpressed from pKOT105 (data set 2) (natural protein)
chain: B1 chain
B8: FliF(V266R), overexpressed in E. coli (natural protein)
chain: B1 chain with V266R
B9: full-length Salmonella FliF (MS ring), overexpressed from pKOT112 (data set 1) (natural protein)
chain: B1 chain
B10: FliF(L253A) expressed from pMMiF004 in Salmonella TH12415 (ΔfliF) (natural protein)
chain: B1 chain with L253A
B11: FliF(I252R), overexpressed in E. coli (natural protein)
chain: B1 chain with I252R

What was measured:
cryo-EM structure [1] = target: the molecule itself; experiment: cryo-EM structure
negative-stain EM = target: the molecule itself; experiment: negative-stain EM
[2] = target: the molecule itself; experiment: electron microscopy of purified hook-basal bodies
cryo-EM structure [3] = target: the molecule itself; experiment: cryo-EM structure; remark: listed apart in the source

Protein	binding result (negative-stain EM)	further results
B1	–	stoichiometry N (cryo-EM structure [1]): 34
B2	binds	–
B3	binds	–
B4	binds	–
B5	–	binding result [2]: binds
B6	binds	–
B7	–	stoichiometry N (cryo-EM structure [3]): 34
B8	binds	–
B9	–	stoichiometry N (cryo-EM structure [3]): 34
B10	–	binding result [2]: binds
B11	binds	–
